Columns and labels:
[1] = target: Drp1 Y493A (isoform 1) (human) (UniProt O00429)
[2] = target: Drp1 Y493A (isoform 1) (human) (UniProt O00429); experiment: SEC-MALS; 5 µM Drp1 injected onto a Superose 6 10/300GL column

With “Drp1 Y493A (isoform 1) (from UniProt O00429-1 1-736) (natural protein)” the GTPase activity (malachite green) with cardiolipin-containing nanotubes; not stimulated [1] was 1.2 min⁻¹ and the stoichiometry N [2] was 2.

From publication PMC10864337
